Measured values taken from patent publication US9494574B2, “T-cell death-inducing epitopes” (AbGenomics Cooperatief U.A., priority 2004, dated 2016).
Entries after “also recorded” stand apart in the source; their conditions may differ.

B1: m128-9F9: mouse monoclonal antibody from hybridoma raised against Concanovalin A-activated human T-cells; induces T-cell apoptosis (antibody, V domains shown)
VL: DVLMTQTPLSLPVSLGDQASISCRSSQSIVNSNGNTYLEWYLQKPGQSPKLLIYKVSNRFSGVPDRFSGSGSGTDFTLKISRVEAEDLGVYYCFQGSHVPWTFGGGTKLEIK
VH: EVQLVETGGGLVQPKGSLKLSCAASGFTFNTNAMNWVRQAPGKGLEWVARIRSKSNNYATYYADSVKDRFTISRDDTQSMIYLQMNNLKTEDTGMYYCVRGGSYWYFDVWGAGTTVTVSS
B2: m166-43B6: mouse monoclonal antibody from hybridoma raised against Concanovalin A-activated human T-cells; induces T-cell apoptosis (antibody, V domains shown)
VL: ENVLTQSPAIMSASPGEKVTMTCRASSTVNSTYLHWFQQKSGASPKLWIYGSSNLASGVPARFSGSGSGTSYSLTISSVEAEDAATYYCQQYSGYPLTFGAGTTLELK
VH: EVQLQQSGPDLVKPGALVKISCKASGYSFTAYYIHWVKQSHGKSLEWIGRVNPNTGGTSYNPKFKGKAILNVDKSSSTAYMELRSLTSEDSAVYYCARSGSPYYRYDDWGQGTTLTVSS
B3: m152-15A7: mouse monoclonal antibody from hybridoma raised against Concanovalin A-activated human T-cells; induces T-cell apoptosis (antibody, V domains shown)
VL: DILMTQTPLSLPVSLGDQASISCRSSQSIVHNDGNTYFEWYLQKPGQSPKLLIYKVSNRFSGVPDRFSGSGSGTHFTLNISRVEAEDLGIYYCFQGSYVPLTFGAGTKLELK
VH: DVQLVESGGGLVQPGGSRKLSCAASGFTFSSFGMHWVRQAPEKGLEWVAYINGGSSTIFYANAVKGRFTISRDNPKNTLFLQMTILRSEDTAIYYCGRYASYGGGAMDYWGQGTSVTVSS

Legend:
[1] = tested on: in vitro activated human T-cells; assay: Induction of death of activated human T-cells by monoclonal antibodies (annexin V staining, FACS, CD3-positive gated); type: cell-based; conditions: for Percentage of apoptotic T-cells: Day 7, in vitro activated human T-cells, hybridoma culture supernatant, 6 hours, annexin V positive among CD3-positive cells; for percentage of in vitro activated T-cells undergoing apoptosis compared to that of untreated cells: annexin V staining and FACS analysis; for induction of death (apoptosis) of in vitro activated human T-cells: result in words
Protocol: Activated T cells (see above) were resuspended to a final concentration of 5×10^5 cells/ml in RPMI medium containing 5 ng/ml of IL-2, and treated with control Ig, m128-9F9, m152-15A7, or m166-43B6.
(§1) It is well known that T-cell death-inducing antibodies can be used as therapeutic agents to treat T-cell-related diseases such as transplantation rejections, autoimmune diseases, and allergy. Three monoclonal antibodies against human T-cells were generated, and the capabilities of these monoclonal antibodies to induce apoptosis of activated human T-cells were examined. Culture supernatants containing monoclonal antibodies secreted by hybridoma cell line m128-9F9, m152-15A7, or m166-43B6 were incubated with either non-activated human T-cells (Day 0) or in vitro activated human T-cells (Day7) for 6 hours. Cells were stained with annexin V after incubation, and subjected to FACS analysis. CD3-positive cells were gated to ensure counting of either in vitro activated human T-cells or resting human T-cells. The apoptotic cells were annexin V staining-positive. […] This capability of inducing apoptosis of activated T-cells yet sparing the resting T-cells is a unique feature of the apoptotic pathway and is a dominating feature of therapeutic reagents targeting T-cell-mediated diseases.

[2] = tested on: non-activated human T-cells; assay: Apoptosis of non-activated (resting) human T-cells with monoclonal antibodies (annexin V staining, FACS, CD3-positive gated); type: cell-based; conditions: for Percentage of apoptotic T-cells: Day 0, non-activated human T-cells, hybridoma culture supernatant, 6 hours, annexin V positive among CD3-positive cells; for effect on non-activated human T-cells: result in words
Text: as §1

| Molecule | Percentage of apoptotic T-cells [1] [%] | percentage of in vitro activated T-cells undergoing apoptosis compared to that of untreated cells [1] | induction of death (apoptosis) of in vitro activated human T-cells [1] | Percentage of apoptotic T-cells [2] [%] | effect on non-activated human T-cells [2] |
| --- | --- | --- | --- | --- | --- |
| B1 | 28.71 | about doubled | able to induce T-cell apoptosis in vitro; also recorded: induced death of in vitro activated human T-cells | 5.82 | did not affect non-activated human T-cells |
| B2 | 49.44 | about doubled | able to induce T-cell apoptosis in vitro; also recorded: induced death of in vitro activated human T-cells | 6.57 | did not affect non-activated human T-cells |
| B3 | 51.66 | about doubled | able to induce T-cell apoptosis in vitro; also recorded: induced death of in vitro activated human T-cells | 5.23 | did not affect non-activated human T-cells |
